Assay results as given in the supplement of paper PMC9112550, “Optimization of the antimicrobial peptide Bac7 by deep mutational scanning” (BMC Biology, 2022).

system: Escherichia coli TOP10; test: shrunken log2 fold change of peptide-encoding DNA abundance (4.5 h post-induction vs induction); higher = less antimicrobial activity (less host growth inhibition); settings: time post-induction: 4.5 h; library: site-saturation at positions 5, 18, 19, 20
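Note: peptides expressed intracellularly from a pBAD plasmid library in pooled LB shake-flask culture, induced with 0.3% L-arabinose, DNA abundance read by NGS, three biological replicates, DESeq2 with apeglm shrinkage.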

| Sequence | shrunken log2 fold change |
| --- | --- |
| RRIRMRPPRLPRPRPRPYRLPRP | -0.0977 |
| RRIRGRPPRLPRPRPRPFKRPRP | 0.301 |
| RRIRFRPPRLPRPRPRPRVNPRP | -0.116 |
| RRIRRRPPRLPRPRPRPKFWPRP | 0.278 |
| RRIRNRPPRLPRPRPRPGTGPRP | -0.127 |
| RRIRVRPPRLPRPRPRPGGGPRP | 0.695 |
| RRIRMRPPRLPRPRPRPWSRPRP | 0.163 |
| RRIRKRPPRLPRPRPRPRRLPRP | 0.0159 |
| RRIRVRPPRLPRPRPRPHWKPRP | -0.14 |
| RRIRDRPPRLPRPRPRPICFPRP | 0.227 |
| RRIRDRPPRLPRPRPRPLISPRP | 0.116 |
| RRIRKRPPRLPRPRPRPPSWPRP | 0.401 |
| RRIRCRPPRLPRPRPRPGFIPRP | 0.067 |
| RRIRRRPPRLPRPRPRPNDCPRP | 0.264 |
| RRIRVRPPRLPRPRPRPTLEPRP | 0.413 |
| RRIRLRPPRLPRPRPRPATMPRP | -0.366 |
| RRIRIRPPRLPRPRPRPNNNPRP | -0.982 |
| RRIRRRPPRLPRPRPRPVFEPRP | 0.192 |
| RRIRNRPPRLPRPRPRPRQCPRP | 0.0196 |
| RRIRQRPPRLPRPRPRPTNDPRP | -0.296 |
| RRIRGRPPRLPRPRPRPKGFPRP | -0.0463 |
| RRIRRRPPRLPRPRPRPKPAPRP | 0.347 |
| RRIRERPPRLPRPRPRPLFGPRP | -0.0794 |
| RRIRGRPPRLPRPRPRPKQQPRP | 0.228 |
| RRIRWRPPRLPRPRPRPRKTPRP | -0.0389 |

| Sequence | shrunken log2 fold change |
| --- | --- |
| RRIRDRPPRLPRPRPRPKYFPRP | -0.0236 |
| RRIRKRPPRLPRPRPRPYCAPRP | -0.254 |
| RRIRMRPPRLPRPRPRPAMGPRP | 0.867 |
| RRIRPRPPRLPRPRPRPDYFPRP | -0.503 |
| RRIRLRPPRLPRPRPRPGMDPRP | 0.126 |
| RRIRDRPPRLPRPRPRPWVHPRP | -0.0818 |
| RRIRVRPPRLPRPRPRPSGPPRP | -0.119 |
| RRIRARPPRLPRPRPRPHYEPRP | -0.234 |
| RRIRHRPPRLPRPRPRPWMSPRP | -0.0135 |
| RRIRKRPPRLPRPRPRPYSPPRP | -0.23 |
| RRIRQRPPRLPRPRPRPMANPRP | -0.18 |
| RRIRKRPPRLPRPRPRPNFQPRP | 0.287 |
| RRIRYRPPRLPRPRPRPGQPPRP | 0.0516 |
| RRIRMRPPRLPRPRPRPLDIPRP | -0.0561 |
| RRIRDRPPRLPRPRPRPIMNPRP | 0.0718 |
| RRIRIRPPRLPRPRPRPSMQPRP | -0.221 |
| RRIRMRPPRLPRPRPRPQDIPRP | -0.0524 |
| RRIRIRPPRLPRPRPRPWTWPRP | -0.204 |
| RRIRTRPPRLPRPRPRPTLMPRP | -0.142 |
| RRIRSRPPRLPRPRPRPADSPRP | -0.176 |
| RRIRCRPPRLPRPRPRPHRKPRP | -0.0176 |
| RRIRKRPPRLPRPRPRPYFPPRP | -0.348 |
| RRIRNRPPRLPRPRPRPILEPRP | 0.109 |
| RRIRWRPPRLPRPRPRPHWHPRP | -0.0347 |
| RRIRIRPPRLPRPRPRPGNEPRP | -0.0358 |

| Sequence | shrunken log2 fold change |
| --- | --- |
| RRIRWRPPRLPRPRPRPCCKPRP | 0.0725 |
| RRIRHRPPRLPRPRPRPPCHPRP | -0.253 |
| RRIRERPPRLPRPRPRPTGGPRP | 0.342 |
| RRIRGRPPRLPRPRPRPGYPPRP | 0.115 |
| RRIRGRPPRLPRPRPRPDPLPRP | 0.072 |
| RRIRCRPPRLPRPRPRPCILPRP | -1.1 |
| RRIRLRPPRLPRPRPRPEMNPRP | 0.176 |
| RRIRDRPPRLPRPRPRPVIWPRP | 0.0861 |
| RRIRFRPPRLPRPRPRPFQKPRP | -0.00162 |
| RRIRVRPPRLPRPRPRPDQMPRP | 0.0399 |
| RRIRVRPPRLPRPRPRPRCNPRP | -0.135 |
| RRIRDRPPRLPRPRPRPYNVPRP | -0.0265 |
| RRIRGRPPRLPRPRPRPGCEPRP | 2.03 |
| RRIRMRPPRLPRPRPRPWWTPRP | 0.0804 |
| RRIRMRPPRLPRPRPRPHMQPRP | -0.122 |
| RRIRDRPPRLPRPRPRPKEIPRP | 0.0219 |
| RRIRCRPPRLPRPRPRPNTCPRP | -0.463 |
| RRIRWRPPRLPRPRPRPEQYPRP | -0.171 |
| RRIRCRPPRLPRPRPRPYNCPRP | -0.195 |
| RRIRGRPPRLPRPRPRPLQRPRP | 0.762 |
| RRIRWRPPRLPRPRPRPHKMPRP | -0.146 |
| RRIRSRPPRLPRPRPRPGGMPRP | 0.446 |
| RRIRYRPPRLPRPRPRPLEPPRP | -0.124 |
| RRIRTRPPRLPRPRPRPMYMPRP | -0.0921 |
| RRIRNRPPRLPRPRPRPSYMPRP | -1.71 |

| Sequence | shrunken log2 fold change |
| --- | --- |
| RRIRQRPPRLPRPRPRPCKCPRP | -0.000687 |
| RRIRRRPPRLPRPRPRPFTIPRP | 0.0518 |
| RRIRYRPPRLPRPRPRPAKPPRP | -0.0319 |
| RRIRWRPPRLPRPRPRPRGRPRP | 0.704 |
| RRIRQRPPRLPRPRPRPIPPPRP | 0.0581 |
| RRIRARPPRLPRPRPRPCQYPRP | -0.411 |
| RRIRERPPRLPRPRPRPTNPPRP | -0.182 |
| RRIRNRPPRLPRPRPRPPTYPRP | -0.217 |
| RRIRRRPPRLPRPRPRPHENPRP | -0.019 |
| RRIRFRPPRLPRPRPRPWNCPRP | -0.0434 |
| RRIRIRPPRLPRPRPRPWMPPRP | -0.131 |
| RRIRDRPPRLPRPRPRPNKNPRP | -0.343 |
| RRIRPRPPRLPRPRPRPHMVPRP | -0.0201 |
| RRIRYRPPRLPRPRPRPIGAPRP | -0.419 |
| RRIRYRPPRLPRPRPRPFNPPRP | -0.0161 |
| RRIRRRPPRLPRPRPRPGTCPRP | -0.087 |
| RRIRNRPPRLPRPRPRPREFPRP | 0.306 |
| RRIRSRPPRLPRPRPRPFTTPRP | -0.392 |
| RRIRCRPPRLPRPRPRPGIKPRP | -0.876 |
| RRIRSRPPRLPRPRPRPDMEPRP | 0.0134 |
| RRIRKRPPRLPRPRPRPCAPPRP | 0.436 |
| RRIRNRPPRLPRPRPRPNEAPRP | -0.00931 |
| RRIRQRPPRLPRPRPRPFVPPRP | 0.0357 |
| RRIRNRPPRLPRPRPRPRSYPRP | -0.0727 |
| RRIRDRPPRLPRPRPRPFHKPRP | -0.0864 |

| Sequence | shrunken log2 fold change |
| --- | --- |
| RRIRSRPPRLPRPRPRPSTIPRP | -0.482 |
| RRIRCRPPRLPRPRPRPIAHPRP | -0.0801 |
| RRIRYRPPRLPRPRPRPEWWPRP | -0.0484 |
| RRIRARPPRLPRPRPRPTRKPRP | 0.574 |
| RRIRHRPPRLPRPRPRPRSPPRP | 0.243 |
| RRIRCRPPRLPRPRPRPFVEPRP | -0.507 |
| RRIRVRPPRLPRPRPRPDHPPRP | -0.386 |
| RRIRTRPPRLPRPRPRPTDYPRP | -0.263 |
| RRIRERPPRLPRPRPRPRTGPRP | 0.0617 |
| RRIRPRPPRLPRPRPRPHFAPRP | 0.284 |
| RRIRSRPPRLPRPRPRPGMFPRP | 0.107 |
| RRIRIRPPRLPRPRPRPDMCPRP | 0.00741 |
| RRIRHRPPRLPRPRPRPEVHPRP | 0.16 |
| RRIRSRPPRLPRPRPRPQDGPRP | -0.0336 |
| RRIRIRPPRLPRPRPRPQTCPRP | -0.141 |
| RRIRPRPPRLPRPRPRPGFSPRP | -0.0307 |
| RRIRPRPPRLPRPRPRPIWWPRP | 0.665 |
| RRIRMRPPRLPRPRPRPVHTPRP | 0.213 |
| RRIRKRPPRLPRPRPRPGERPRP | -0.116 |
| RRIRFRPPRLPRPRPRPWGQPRP | 0.0397 |
| RRIRMRPPRLPRPRPRPLMDPRP | 1.24 |
| RRIRIRPPRLPRPRPRPRWHPRP | 0.139 |
| RRIRFRPPRLPRPRPRPMLYPRP | -0.567 |
| RRIRVRPPRLPRPRPRPWGEPRP | 0.136 |
| RRIRVRPPRLPRPRPRPEILPRP | -0.0486 |

| Sequence | shrunken log2 fold change |
| --- | --- |
| RRIRHRPPRLPRPRPRPWMCPRP | -1.49 |
| RRIRMRPPRLPRPRPRPGRHPRP | 0.441 |
| RRIRMRPPRLPRPRPRPEDRPRP | -0.0526 |
| RRIRSRPPRLPRPRPRPMRAPRP | 0.706 |
| RRIRHRPPRLPRPRPRPCFCPRP | -0.226 |
| RRIRIRPPRLPRPRPRPIIFPRP | -0.667 |
| RRIRVRPPRLPRPRPRPKESPRP | -0.0206 |
| RRIRQRPPRLPRPRPRPKIDPRP | -0.146 |
| RRIRHRPPRLPRPRPRPRKQPRP | 0.11 |
| RRIRQRPPRLPRPRPRPKRWPRP | 0.0413 |
| RRIRGRPPRLPRPRPRPRHRPRP | 0.401 |
| RRIRPRPPRLPRPRPRPIAGPRP | 0.0445 |
| RRIRPRPPRLPRPRPRPMYFPRP | -0.0431 |
| RRIRSRPPRLPRPRPRPGQMPRP | 0.206 |
| RRIRMRPPRLPRPRPRPNQIPRP | 0.283 |
| RRIRFRPPRLPRPRPRPGTAPRP | 0.0678 |
| RRIRHRPPRLPRPRPRPTYIPRP | -0.573 |
| RRIRRRPPRLPRPRPRPMLHPRP | 0.385 |
| RRIRNRPPRLPRPRPRPTIIPRP | -0.905 |
| RRIRSRPPRLPRPRPRPVVWPRP | 0.462 |
| RRIRARPPRLPRPRPRPGSPPRP | 0.394 |
| RRIRMRPPRLPRPRPRPLVKPRP | -0.174 |
| RRIRERPPRLPRPRPRPCFMPRP | -0.231 |
| RRIRSRPPRLPRPRPRPMDWPRP | -0.0477 |
| RRIRIRPPRLPRPRPRPPWTPRP | 0.0205 |
